In patent US20210072252A1:

Biological target: synthetic peptide with N-terminal methionine (Example 1, on nanogel surface)
Assay: single-molecule detection, TIRF microscopy; labeled NAAB on peptide immobilized on nanogel; counts per field of view

ratio of specific to non-specific binding: 2 to 1
Substance: wild-type E. coli methionine aminopeptidase (eMAP) (from UniProt P0AE18 1-264) (enzyme)
